Ends that are not written are not given here. * marks the point of attachment. Biotin = O=C1N[C@H]2[C@H](CS[C@H]2CCCCC(=O)*)N1; Ahx = NCCCCCC(=O)O

The target of assay [1] is T1, cyclic peptide TTR34-54cyc (cyclized via disulfide bridge between two cysteine residues within the poly-glycine stretch).
T1 construct: 31 residues: 21 residues of TTR (34-54 of wild type TTR) flanked by the linkers GCGGG and GGGCG; Synthetic (Schafer-N); also called cyclic TTR peptide
Briefly: ELISA-2, coated TTR34-54cyc at 10 µg/ml, anti-human IgG-HRP detection. The protocol: (§1) In particular, 96-well microplates were coated for 1 hour at 37° C. with TTR34-54cyc, TTR40-49, Biotin. TTR40-449, and mis-WT-TTR (FLISA-1) and with TTR34-54cyc, Biotin. TTR34-54cyc, TTR40-49, Biotin. TTR40-449, and mis-WT-TTR (ELISA-2), respectively, wherein each target antigen has been diluted to a concentration of 10 μg/ml in PBS buffer pH 7.4. Non-specific binding sites were blocked for 1 hour at room temperature (RT) with a blocking buffer containing 2% bovine serum albumin (BSA) and 0.1% tween-20 in PBS buffer. […] Binding was determined using an anti-human IgG antibody conjugated with horseradish peroxidase (HRP), followed by measurement of HRP activity in a standard colorimetric assay (ThermoFisher Scientific Inc., Waltham, Massachusetts, USA). Data were analyzed with the Prism software from GraphPad. ECso values were estimated using non-linear regression of individual data points using log (agonist) versus response model with variable slope. Data fitting was performed with the least square regression method.
(In general: ELISA stands for enzyme-linked immunosorbent assay.)

For assay [2], the target named is T1, cyclic peptide TTR34-54cyc. The assay is described as follows: ELISA-1, coated TTR34-54cyc at 10 µg/ml, anti-human IgG-HRP detection. How it is done:
as §1

The target in assay [3] is T2, TTR peptide TTR40-49.
T2 peptide: H-TWEPFASGKT-OH
Briefly: ELISA-1 and ELISA-2, peptide coated at 10 µg/ml, anti-human IgG-HRP detection. How it is done:
as §1

Assay [4] has as its target T3, Biotin.TTR40-49.
T3 construct: also called Biotin; TTR40-449; biotinylated TTR peptide TTR40-49
T3 peptide: {Biotin-Ahx}-TWEPFASGKT
Described as above. The protocol: as §1

Assay [5] addresses T4, Biotin.TTR34-54cyc (N-terminal Biotin-(Ahx): amino hexanoic acid spacer between the N-terminus and the biotin residue; cyclized via disulfide bridge between the two cysteine residues).
T4 construct: Biotinylated form of TTR34-54cyc; also called biotinylated TTR34-54cyc
The assay is described as follows: ELISA (ELISA-2), plate coated with Biotin.TTR34-54cyc at 10 µg/ml, antibody titrated. The protocol:
as §1

Assay [6] deals with fluorescently labeled misfolded TTR aggregates of the monomeric F87M/L110M-TTR mutant (mis.TTR-488) (UniProt P02766 21-147). The assay is described as follows: cell-based or functional assay.
Assay [7] has as its target T1, cyclic peptide TTR34-54cyc. Briefly: cell-based or functional assay.
Assay [8] concerns the target T1, cyclic peptide TTR34-54cyc. The assay is described as follows: ELISA, coated peptide at 10 µg/ml, reference mis.WT-TTR. The protocol: as §1
For assay [9], the target named is T4, Biotin.TTR34-54cyc. The assay is described as above. The protocol:
as §1

Assay [10] has as its target T1, cyclic peptide TTR34-54cyc. The assay is described as follows: cell-based or functional assay. This is another data set of the same source.

T1 sequence (peptide, as listed by the source): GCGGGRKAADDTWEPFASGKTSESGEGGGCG
T4 sequence (peptide, as listed by the source): as above

B1: anti-TTR antibody NI-301.37F1 (antibody, V domains shown)
VH: QVQLQESGPGLVKPSETLSLTCSVSGGSIISRSSYWGWIRQPPGKGLEWIGGIYHSGNTYDNPSLKSRLTMSVDTSKNQFSLNLRSVTAADTAVYYCARIVPGGDAFDIWGQGTMVTVSS
VL: DIQMTQSPSSLSASVGDRVTIACRASQSVGTYLNWYQQKRGKAPKLLIFAASSLQSGVPSRFSGSGSGTDFTLTISSLQPEDFATYYCQQSYSSPPTFGQGTKVEIK
notes: detected with anti-human IgG; also called 37F1_3
What is called EC50 is the midpoint of the concentration-response curve. A high value points to a less potent agent. A word on the EC50 (read off the curve): it is the midpoint of the concentration-response curve. Higher therefore signals a need for much substance. In the case of B1, the EC50 in assay [1] stood at 0.66 nM. For the same molecule, the EC50 in assay [2] is 0.027 nM. In addition, the binding result in assay [3] was “no binding”. Also, in assay [4], the binding result is recorded as “no binding”. Further, the “EC50 (read off the curve)” value in [5] is roughly 600 pM. In assay [6], the “EC50 of the mis.TTR-488 phagocytosis dose-response in THP1 cells, 0.7x_NI-301.37F1_3 (nominal concentration; sample at 0.7x of the reference)” value is 1.5 nM; the “EC50 of the mis.TTR-488 phagocytosis dose-response in THP1 cells, 1x_NI-301.37F1_3” value came out at 1.2 nM; the “EC50 of the mis.TTR-488 phagocytosis dose-response in THP1 cells, NI-301.37F1_W1 GMP DS” value amounted to 0.54 nM; the “EC50 of the mis.TTR-488 phagocytosis dose-response in THP1 cells, NI-301.37F1_W1 non-GMP DP” value was found to be 0.92 nM. Moreover, the “EC50 of the FcγR1 ADCP reporter assay, first experiment (FIG. 11); plate coated with 3 µg/mL TTR34-54cyc, NI-301.37F1 RS dilutions 500-0.4 ng/ml” value in assay [7] was 19.8 ng/mL. Moreover, in assay [8], the “fold stronger binding than to mis. WT-TTR” value is roughly 10 fold. Besides, in assay [9], the “fold stronger binding than to mis. WT-TTR” value is roughly 10 fold. Besides, in assay [10], the “EC50 (ng/mL) of the FcγR1 ADCP reporter assay, plate coated with TTR34-54cyc; reference sample (RS) 100%, run with the 50% test sample” value is 19.8 ng/mL; the “EC50 (ng/mL) of the FcγR1 ADCP reporter assay, plate coated with TTR34-54cyc; reference sample (RS) 100%, run with the 70% test sample” value was determined as 19.8 ng/mL; the “EC50 (ng/mL) of the FcγR1 ADCP reporter assay, plate coated with TTR34-54cyc; reference sample (RS) 100%, run with the 130% test sample” value was found to be 17.6 ng/mL; the “EC50 (ng/mL) of the FcγR1 ADCP reporter assay, plate coated with TTR34-54cyc; reference sample (RS) 100%, run with the 150% test sample” value came to 19.3 ng/mL. Also, in [10], the “EC50 (ng/mL) of the FcγR1 ADCP reporter assay, plate coated with TTR34-54cyc; test sample 50% (nominal concentration)” value turned out to be 39 ng/mL; the “EC50 (ng/mL) of the FcγR1 ADCP reporter assay, plate coated with TTR34-54cyc; test sample 70% (nominal concentration)” value came to 30.4 ng/mL; the “EC50 (ng/mL) of the FcγR1 ADCP reporter assay, plate coated with TTR34-54cyc; test sample 130% (nominal concentration)” value is 13.6 ng/mL; the “EC50 (ng/mL) of the FcγR1 ADCP reporter assay, plate coated with TTR34-54cyc; test sample 150% (nominal concentration)” value was 13.5 ng/mL.

The values above are taken from US20250035612A1 (NEURIMMUNE, published 2025).
